Results on one molecule are retold here after publication PMC5986797, “Laminin heparin-binding peptides bind to several growth factors and enhance diabetic wound healing” (Nature Communications, 2018).

Common to all, as to set-up: species or system human
Details in all cases: 1 µg/mL LG domain coated; 1 μg/mL GF; vs BSA-coated wells; n = 4

The subject of one assay is FGF-2. The assay can be described thus: ELISA: FGF-2 binding to laminin LG domain / laminin peptide. The procedure: (§1) ELISA tests were performed as described above. In brief, ELISA plates were coated with 1 μg/mL of laminin alpha 3 LG domain recombinant protein, laminin alpha 4 LG domain recombinant protein (R&D Systems), laminin alpha 5 LG domain recombinant protein (LD BioPharma), or laminin peptide (sequences are described in Supplementary Table 1, chemically synthesized by Genscript) in PBS for 2 h at 37 °C. A concentration of 1 μg/mL of BSA served as non-binding protein control. After blocking with 2% BSA PBS-0.05% Tween 20 (PBS-T) solution, 1 μg/mL of the recombinant human proteins (VEGF-A121, VEGF-A165, PlGF-1, PlGF-2, PDGF-BB, or FGF-2) or 10 μg/mL of biotinylated heparin (Sigma-Aldrich) were added. Bound GF was detected with biotinylated antibodies for human VEGF-A, PlGF, PDGF-BB (R&D Systems, Catalog No. DY220, 1:180 dilution), or FGF-2 (R&D Systems). The antibodies were detected by streptavidin-HRP (R&D Systems).

For the next assay, the system named is PDGF-BB. The assay can be described thus: ELISA: PDGF-BB binding to laminin LG domain / laminin peptide. As to the method:
as §1

For the next assay, the system named is VEGF-A165. The assay can be described thus: ELISA: VEGF-A165 binding to laminin LG domain / laminin peptide. The procedure: as §1, with “ELISA plates were coated with 1 μg/mL of laminin alpha 3 LG domain” left out
A further assay relates to VEGF-A121. The assay can be described thus: ELISA: VEGF-A121 binding to laminin LG domain / laminin peptide. The procedure:
as §1

The subject of the next assay is PlGF-2. As to the kind of experiment: ELISA: PlGF-2 binding to laminin LG domain / laminin peptide. As to the method: as §1
In general terms: ELISA stands for enzyme-linked immunosorbent assay.

A further assay deals with PlGF-1. As to the kind of experiment: ELISA: PlGF-1 binding to laminin LG domain / laminin peptide. As to the method:
as §1

B1: LAMA5_3026–3482: laminin alpha 5 LG domain recombinant protein (LD BioPharma) (protein)
chain: AIQVFLLGGSRKRVLVRVERATVYSVEQDNDLELADAYYLGGVPPDQLPPSLRRLFPTGGSVRGCVKGIKALGKYVDLKRLNTTGVSAGCTADLLVGRAMTFHGHGFLRLALSNVAPLTGNVYSGFGFHSAQDSALLYYRASPDGLCQVSLQQGRVSLQLLRTEVKTQAGFADGAPHYVAFYSNATGVWLYVDDQLQQMKPHRGPPPELQPQPEGPPRLLLGGLPESGTIYNFSGCISNVFVQRLLGPQRVFDLQQNLGSVNVSTGCAPALQAQTPGLGPRGLQATARKASRRSRQPARHPACMLPPHLRTTRDSYQFGGSLSSHLEFVGILARHRNWPSLSMHVLPRSSRGLLLFTARLRPGSPSLALFLSNGHFVAQMEGLGTRLRAQSRQRSRPGRWHKVSVRWEKNRILLVTDGARAWSQEGPHRQHQGAEHPQPHTLFVGGLPASSHSSKLP
For B1, in the assay with FGF-2, the “binding to FGF-2 (ELISA), recombinant LG domains” value is “bound”. Also, the “binding to PDGF-BB (ELISA), recombinant LG domains” value with PDGF-BB is given as “bound”. Moreover, the “binding to VEGF-A165 (ELISA), recombinant LG domains” value with VEGF-A165 is reported as “bound”. Moreover, the “binding to VEGF-A121 (ELISA), recombinant LG domains” value in the assay on VEGF-A121 is “did not show any binding”. Also, the “binding to PlGF-2 (ELISA), recombinant LG domains” value in the assay with PlGF-2 was “bound”. Moreover, the “binding to PlGF-1 (ELISA), recombinant LG domains” value in the assay with PlGF-1 was “did not show any binding”.
